{"source": "the supplement of paper PMC7125110", "parents": {"B1": {"name": "glmS ribozyme (parent)", "chain": "AUAAAAGCGCCAGAACUACAGAAAUGUAGUUGACGAGGAGGAGGUUUAUCGAAUUUUCGGCGGAUGCCUCCAAA"}}, "details_in_all_cases": "with glucosamine-6-phosphate", "key": {"glucosamine-6-phosphate [1]": {"variants_of": "B1", "test": "kcat; higher = faster cleavage; RNA array", "method_in_brief": "(§1)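 Barcoded ribozyme variants were transcribed in situ on sequenced MiSeq chips by E. coli RNA polymerase. At 37 °C, a hybridised Cy3 probe tracked them while glucosamine-6-phosphate (40 μM to 10 mM) in HEPES/KCl/Mg(OAc)2 buffer flowed in and tiles were imaged over ~14 h. Per-tile medians of signals normalised to baseline and to non-cleaving reference variants were fit to one- or two-exponential decays, giving kobs. kcat and KM came from weighted Michaelis–Menten fits across concentrations.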"}, "glucosamine-6-phosphate [2]": {"variants_of": "B1", "test": "KM; higher = weaker cofactor use; RNA array", "method_in_brief": "as §1"}, "glucosamine-6-phosphate [3]": {"variants_of": "B1", "test": "self-cleavage kobs at 40 uM GlcN6P; higher = faster cleavage; RNA array", "method_in_brief": "as §1"}, "glucosamine-6-phosphate [4]": {"variants_of": "B1", "test": "self-cleavage kobs at 160 uM GlcN6P; higher = faster cleavage; RNA array", "method_in_brief": "as §1"}, "glucosamine-6-phosphate [5]": {"variants_of": "B1", "test": "self-cleavage kobs at 640 uM GlcN6P; higher = faster cleavage; RNA array", "method_in_brief": "as §1"}, "glucosamine-6-phosphate [6]": {"variants_of": "B1", "test": "self-cleavage kobs at 2500 uM GlcN6P; higher = faster cleavage; RNA array", "method_in_brief": "as §1"}, "glucosamine-6-phosphate [7]": {"variants_of": "B1", "test": "self-cleavage kobs at 10000 uM GlcN6P; higher = faster cleavage; RNA array", "method_in_brief": "as §1"}}, "note": "± gives the standard error. For some of these results: This sample holds only a part of the variants without activity."}
{"variant": "U30G C67U", "values": [{"measurement": "kcat", "setting": "glucosamine-6-phosphate [1]", "value": "0.00191 ± 0.00047", "unit": "s⁻¹"}, {"measurement": "KM", "setting": "glucosamine-6-phosphate [2]", "value": "924 ± 380", "unit": "µM"}, {"measurement": "self-cleavage kobs at 40 uM GlcN6P", "setting": "glucosamine-6-phosphate [3]", "value": "9.9e-05 ± 2.5e-05", "unit": "s⁻¹"}, {"measurement": "self-cleavage kobs at 160 uM GlcN6P", "setting": "glucosamine-6-phosphate [4]", "value": "0.000289 ± 5.9e-05", "unit": "s⁻¹"}, {"measurement": "self-cleavage kobs at 640 uM GlcN6P", "setting": "glucosamine-6-phosphate [5]", "value": "0.000697 ± 0.00011", "unit": "s⁻¹"}, {"measurement": "self-cleavage kobs at 2500 uM GlcN6P", "setting": "glucosamine-6-phosphate [6]", "value": "0.00139 ± 0.00022", "unit": "s⁻¹"}, {"measurement": "self-cleavage kobs at 10000 uM GlcN6P", "setting": "glucosamine-6-phosphate [7]", "value": "0.00378 ± 0.0013", "unit": "s⁻¹"}]}
{"variant": "A42U A52U", "values": [{"measurement": "kcat", "setting": "glucosamine-6-phosphate [1]", "value": "3e-05 ± 6.8e-07", "unit": "s⁻¹"}, {"measurement": "KM", "setting": "glucosamine-6-phosphate [2]", "value": "2350 ± 200", "unit": "µM"}, {"measurement": "self-cleavage kobs at 160 uM GlcN6P", "setting": "glucosamine-6-phosphate [4]", "value": "< 1e-05", "unit": "s⁻¹"}, {"measurement": "self-cleavage kobs at 640 uM GlcN6P", "setting": "glucosamine-6-phosphate [5]", "value": "< 1e-05", "unit": "s⁻¹"}, {"measurement": "self-cleavage kobs at 10000 uM GlcN6P", "setting": "glucosamine-6-phosphate [7]", "value": "2.43e-05 ± 9.1e-06", "unit": "s⁻¹"}]}
{"variant": "U31A U46A", "values": [{"measurement": "kcat", "setting": "glucosamine-6-phosphate [1]", "value": "0.00237 ± 0.00062", "unit": "s⁻¹"}, {"measurement": "KM", "setting": "glucosamine-6-phosphate [2]", "value": "5680 ± 2600", "unit": "µM"}, {"measurement": "self-cleavage kobs at 40 uM GlcN6P", "setting": "glucosamine-6-phosphate [3]", "value": "3.33e-05 ± 1.3e-05", "unit": "s⁻¹"}, {"measurement": "self-cleavage kobs at 160 uM GlcN6P", "setting": "glucosamine-6-phosphate [4]", "value": "4.27e-05 ± 1.9e-05", "unit": "s⁻¹"}, {"measurement": "self-cleavage kobs at 640 uM GlcN6P", "setting": "glucosamine-6-phosphate [5]", "value": "0.000292 ± 9.4e-05", "unit": "s⁻¹"}, {"measurement": "self-cleavage kobs at 2500 uM GlcN6P", "setting": "glucosamine-6-phosphate [6]", "value": "0.000857 ± 0.0002", "unit": "s⁻¹"}, {"measurement": "self-cleavage kobs at 10000 uM GlcN6P", "setting": "glucosamine-6-phosphate [7]", "value": "0.00149 ± 0.00018", "unit": "s⁻¹"}]}
{"variant": "U56G C61U", "values": [{"measurement": "kcat", "setting": "glucosamine-6-phosphate [1]", "value": "< 1e-05", "unit": "s⁻¹"}, {"measurement": "self-cleavage kobs at 40 uM GlcN6P", "setting": "glucosamine-6-phosphate [3]", "value": "< 1e-05", "unit": "s⁻¹"}]}
{"variant": "A6U A15C", "values": [{"measurement": "kcat", "setting": "glucosamine-6-phosphate [1]", "value": "7.81e-05 ± 1.6e-05", "unit": "s⁻¹"}, {"measurement": "KM", "setting": "glucosamine-6-phosphate [2]", "value": "4250 ± 2000", "unit": "µM"}, {"measurement": "self-cleavage kobs at 40 uM GlcN6P", "setting": "glucosamine-6-phosphate [3]", "value": "< 1e-05", "unit": "s⁻¹"}, {"measurement": "self-cleavage kobs at 2500 uM GlcN6P", "setting": "glucosamine-6-phosphate [6]", "value": "2.58e-05 ± 7.8e-06", "unit": "s⁻¹"}, {"measurement": "self-cleavage kobs at 10000 uM GlcN6P", "setting": "glucosamine-6-phosphate [7]", "value": "5.56e-05 ± 8.2e-06", "unit": "s⁻¹"}]}
{"variant": "U57G G62U", "values": [{"measurement": "kcat", "setting": "glucosamine-6-phosphate [1]", "value": "< 1e-05", "unit": "s⁻¹"}, {"measurement": "self-cleavage kobs at 40 uM GlcN6P", "setting": "glucosamine-6-phosphate [3]", "value": "< 1e-05", "unit": "s⁻¹"}, {"measurement": "self-cleavage kobs at 2500 uM GlcN6P", "setting": "glucosamine-6-phosphate [6]", "value": "< 1e-05", "unit": "s⁻¹"}]}
{"variant": "A33U A52G", "values": [{"measurement": "kcat", "setting": "glucosamine-6-phosphate [1]", "value": "3.65e-05 ± 1.3e-05", "unit": "s⁻¹"}, {"measurement": "self-cleavage kobs at 10000 uM GlcN6P", "setting": "glucosamine-6-phosphate [7]", "value": "1.94e-05 ± 7.9e-06", "unit": "s⁻¹"}]}
{"variant": "A14U C50G C68A", "values": [{"measurement": "kcat", "setting": "glucosamine-6-phosphate [1]", "value": "7.35e-05 ± 2e-05", "unit": "s⁻¹"}, {"measurement": "self-cleavage kobs at 40 uM GlcN6P", "setting": "glucosamine-6-phosphate [3]", "value": "5.1e-05 ± 1.3e-05", "unit": "s⁻¹"}, {"measurement": "self-cleavage kobs at 640 uM GlcN6P", "setting": "glucosamine-6-phosphate [5]", "value": "0.000122 ± 2.5e-05", "unit": "s⁻¹"}, {"measurement": "self-cleavage kobs at 2500 uM GlcN6P", "setting": "glucosamine-6-phosphate [6]", "value": "7.66e-05 ± 2.9e-05", "unit": "s⁻¹"}, {"measurement": "self-cleavage kobs at 10000 uM GlcN6P", "setting": "glucosamine-6-phosphate [7]", "value": "5.56e-05 ± 1.5e-05", "unit": "s⁻¹"}]}
{"variant": "U31A A48U", "values": [{"measurement": "kcat", "setting": "glucosamine-6-phosphate [1]", "value": "9.44e-05 ± 4.1e-05", "unit": "s⁻¹"}, {"measurement": "self-cleavage kobs at 640 uM GlcN6P", "setting": "glucosamine-6-phosphate [5]", "value": "4.25e-05 ± 1.5e-05", "unit": "s⁻¹"}, {"measurement": "self-cleavage kobs at 2500 uM GlcN6P", "setting": "glucosamine-6-phosphate [6]", "value": "5.43e-05 ± 1.6e-05", "unit": "s⁻¹"}, {"measurement": "self-cleavage kobs at 10000 uM GlcN6P", "setting": "glucosamine-6-phosphate [7]", "value": "0.000133 ± 4.7e-05", "unit": "s⁻¹"}]}
{"variant": "A15C C16U A53G U55A C68G", "values": [{"measurement": "kcat", "setting": "glucosamine-6-phosphate [1]", "value": "3.32e-05 ± 6.7e-06", "unit": "s⁻¹"}, {"measurement": "self-cleavage kobs at 160 uM GlcN6P", "setting": "glucosamine-6-phosphate [4]", "value": "3.89e-05 ± 1.8e-05", "unit": "s⁻¹"}, {"measurement": "self-cleavage kobs at 2500 uM GlcN6P", "setting": "glucosamine-6-phosphate [6]", "value": "3.96e-05 ± 1.4e-05", "unit": "s⁻¹"}]}
{"variant": "G29U G38A G59A C67A U69G", "values": [{"measurement": "kcat", "setting": "glucosamine-6-phosphate [1]", "value": "2.86e-05 ± 6.2e-06", "unit": "s⁻¹"}]}
{"variant": "A12G G29A", "values": [{"measurement": "kcat", "setting": "glucosamine-6-phosphate [1]", "value": "0.000356 ± 6.4e-05", "unit": "s⁻¹"}, {"measurement": "KM", "setting": "glucosamine-6-phosphate [2]", "value": "7170 ± 1900", "unit": "µM"}, {"measurement": "self-cleavage kobs at 640 uM GlcN6P", "setting": "glucosamine-6-phosphate [5]", "value": "3.29e-05 ± 1e-05", "unit": "s⁻¹"}, {"measurement": "self-cleavage kobs at 2500 uM GlcN6P", "setting": "glucosamine-6-phosphate [6]", "value": "8.7e-05 ± 1.7e-05", "unit": "s⁻¹"}, {"measurement": "self-cleavage kobs at 10000 uM GlcN6P", "setting": "glucosamine-6-phosphate [7]", "value": "0.000213 ± 4.3e-05", "unit": "s⁻¹"}]}
{"variant": "A42G A52C", "values": [{"measurement": "kcat", "setting": "glucosamine-6-phosphate [1]", "value": "1.58e-05 ± 1.8e-06", "unit": "s⁻¹"}]}
{"variant": "A6G C10U U56A", "values": [{"measurement": "kcat", "setting": "glucosamine-6-phosphate [1]", "value": "< 1e-05", "unit": "s⁻¹"}, {"measurement": "self-cleavage kobs at 40 uM GlcN6P", "setting": "glucosamine-6-phosphate [3]", "value": "< 1e-05", "unit": "s⁻¹"}, {"measurement": "self-cleavage kobs at 640 uM GlcN6P", "setting": "glucosamine-6-phosphate [5]", "value": "< 1e-05", "unit": "s⁻¹"}]}
{"variant": "G43U U46G", "values": [{"measurement": "kcat", "setting": "glucosamine-6-phosphate [1]", "value": "2.88e-05 ± 5.1e-06", "unit": "s⁻¹"}, {"measurement": "self-cleavage kobs at 640 uM GlcN6P", "setting": "glucosamine-6-phosphate [5]", "value": "< 1e-05", "unit": "s⁻¹"}]}
{"variant": "C16A A39U", "values": [{"measurement": "kcat", "setting": "glucosamine-6-phosphate [1]", "value": "0.00123 ± 0.00017", "unit": "s⁻¹"}, {"measurement": "KM", "setting": "glucosamine-6-phosphate [2]", "value": "2410 ± 520", "unit": "µM"}, {"measurement": "self-cleavage kobs at 160 uM GlcN6P", "setting": "glucosamine-6-phosphate [4]", "value": "6.24e-05 ± 9.4e-06", "unit": "s⁻¹"}, {"measurement": "self-cleavage kobs at 640 uM GlcN6P", "setting": "glucosamine-6-phosphate [5]", "value": "0.000287 ± 2.3e-05", "unit": "s⁻¹"}, {"measurement": "self-cleavage kobs at 2500 uM GlcN6P", "setting": "glucosamine-6-phosphate [6]", "value": "0.000654 ± 5.7e-05", "unit": "s⁻¹"}, {"measurement": "self-cleavage kobs at 10000 uM GlcN6P", "setting": "glucosamine-6-phosphate [7]", "value": "0.000937 ± 9e-05", "unit": "s⁻¹"}]}
{"variant": "G13C A53C", "values": [{"measurement": "kcat", "setting": "glucosamine-6-phosphate [1]", "value": "2.72e-05 ± 1.4e-06", "unit": "s⁻¹"}, {"measurement": "KM", "setting": "glucosamine-6-phosphate [2]", "value": "802 ± 260", "unit": "µM"}, {"measurement": "self-cleavage kobs at 40 uM GlcN6P", "setting": "glucosamine-6-phosphate [3]", "value": "< 1e-05", "unit": "s⁻¹"}, {"measurement": "self-cleavage kobs at 160 uM GlcN6P", "setting": "glucosamine-6-phosphate [4]", "value": "< 1e-05", "unit": "s⁻¹"}, {"measurement": "self-cleavage kobs at 10000 uM GlcN6P", "setting": "glucosamine-6-phosphate [7]", "value": "2.49e-05 ± 1.2e-05", "unit": "s⁻¹"}]}
{"variant": "G43A C68G", "values": [{"measurement": "kcat", "setting": "glucosamine-6-phosphate [1]", "value": "0.000174 ± 1.4e-05", "unit": "s⁻¹"}, {"measurement": "KM", "setting": "glucosamine-6-phosphate [2]", "value": "993 ± 160", "unit": "µM"}, {"measurement": "self-cleavage kobs at 640 uM GlcN6P", "setting": "glucosamine-6-phosphate [5]", "value": "6.69e-05 ± 1.2e-05", "unit": "s⁻¹"}, {"measurement": "self-cleavage kobs at 2500 uM GlcN6P", "setting": "glucosamine-6-phosphate [6]", "value": "0.000126 ± 2e-05", "unit": "s⁻¹"}]}
